Laboratory results from patent publication US20220111022A1 (IMMATICS BIOTECHNOLOGIES, published 2022).

B1: SLYDFTGEQMAA (peptide)
peptide: SLYDFTGEQMAA
B2: AVDKTQTSV (peptide)
peptide: AVDKTQTSV
B3: VLKDGTLVI (peptide)
peptide: VLKDGTLVI
B4: FLKDVTAQI (peptide)
peptide: FLKDVTAQI
B5: SLLDENDVSSYL (peptide)
peptide: SLLDENDVSSYL
B6: KLEERVYDV (peptide)
peptide: KLEERVYDV
B7: SLLRDFTLV (peptide)
peptide: SLLRDFTLV
B8: SLDDSLNEL (peptide)
peptide: SLDDSLNEL
B9: RLLDETVDVTI (peptide)
peptide: RLLDETVDVTI
B10: ALAGLVYDA (peptide)
peptide: ALAGLVYDA
B11: HLCNHDVSL (peptide)
peptide: HLCNHDVSL
B12: ALYDSTRELL (peptide)
peptide: ALYDSTRELL
B13: YLHGFDLSL (peptide)
peptide: YLHGFDLSL
B14: ALDDYTITF (peptide)
peptide: ALDDYTITF
B15: YLGAVFDL (peptide)
peptide: YLGAVFDL
B16: LLDSTAHLL (peptide)
peptide: LLDSTAHLL
B17: AVDGTDARL (peptide)
peptide: AVDGTDARL
B18: AIDQTITEA (peptide)
peptide: AIDQTITEA
B19: ALMDVSQNV (peptide)
peptide: ALMDVSQNV
B20: LLDTTDVYL (peptide)
peptide: LLDTTDVYL
B21: SQDASLLKV (peptide)
peptide: SQDASLLKV
B22: SLDISLPNL (peptide)
peptide: SLDISLPNL
B23: TLDITIVNL (peptide)
peptide: TLDITIVNL
B24: ALADLTGTV (peptide)
peptide: ALADLTGTV
B25: KILDFTGPLFL (peptide)
peptide: KILDFTGPLFL
B26: LLDITNPVL (peptide)
peptide: LLDITNPVL
B27: GLDRTQLVNV (peptide)
peptide: GLDRTQLVNV
B28: FLDQTDETL (peptide)
peptide: FLDQTDETL
B29: KLHDTSFCL (peptide)
peptide: KLHDTSFCL
B30: SLSDVSQAV (peptide)
peptide: SLSDVSQAV
B31: VLDGTEVNL (peptide)
peptide: VLDGTEVNL
B32: ALDSTNSEL (peptide)
peptide: ALDSTNSEL
B33: VIDSTLVKV (peptide)
peptide: VIDSTLVKV
B34: ALDSSLQLL (peptide)
peptide: ALDSSLQLL
B35: FLNVDVSEV (peptide)
peptide: FLNVDVSEV
B36: SLFIDVTRV (peptide)
peptide: SLFIDVTRV
B37: FLDTSTADV (peptide)
peptide: FLDTSTADV
B38: ALPQFFNDV (peptide)
peptide: ALPQFFNDV
B39: NLADNTILV (peptide)
peptide: NLADNTILV
B40: KLLNDLTSI (peptide)
peptide: KLLNDLTSI
B41: YVWDRTELL (peptide)
peptide: YVWDRTELL
B42: LLDDQTVTF (peptide)
peptide: LLDDQTVTF
B43: LLDATHQI (peptide)
peptide: LLDATHQI
B44: FISDFTMTI (peptide)
peptide: FISDFTMTI
B45: YLDGTFRLL (peptide)
peptide: YLDGTFRLL
B46: SLRDGTEVV (peptide)
peptide: SLRDGTEVV
B47: FLNPDGSDCTL (peptide)
peptide: FLNPDGSDCTL
B48: KLAPDLTEL (peptide)
peptide: KLAPDLTEL
B49: KTWDQSIAL (peptide)
peptide: KTWDQSIAL
B50: KMLDETVLV (peptide)
peptide: KMLDETVLV
B51: RLQDTTIGL (peptide)
peptide: RLQDTTIGL
B52: AIDDTAARL (peptide)
peptide: AIDDTAARL
B53: ILLDKSTVL (peptide)
peptide: ILLDKSTVL
B54: ILTDITGHDV (peptide)
peptide: ILTDITGHDV
B55: AIYHDITGISV (peptide)
peptide: AIYHDITGISV
B56: AVFDQTVTVI (peptide)
peptide: AVFDQTVTVI
B57: ILFDPDNSSAL (peptide)
peptide: ILFDPDNSSAL
B58: NLYNDLTNV (peptide)
peptide: NLYNDLTNV
B59: SLLDGSESAKL (peptide)
peptide: SLLDGSESAKL
B60: SQTDLSPAL (peptide)
peptide: SQTDLSPAL
B61: SLFDDSFSL (peptide)
peptide: SLFDDSFSL
B62: ILFDDSVFTL (peptide)
peptide: ILFDDSVFTL
B63: YLADFSHAT (peptide)
peptide: YLADFSHAT
B64: SMASFLKDV (peptide)
peptide: SMASFLKDV
B65: NMYDLTFHV (peptide)
peptide: NMYDLTFHV
B66: IQDTSHLAV (peptide)
peptide: IQDTSHLAV

Biological target: T1, HLA-A*02:01 (human)
T1 construct: MHC monomers first loaded with a UV-sensitive peptide (not identified) that is cleaved and exchanged for the test peptide; captured on streptavidin-coated plates and detected with anti-β2m; also called peptide-receptive MHC molecules; MHC class I
Assay: UV-ligand exchange, anti-b2m ELISA; peptide exchange yield grade
Excerpt: Candidate peptides for T cell based therapies according to the present invention were further tested for their MHC binding capacity (affinity). The individual peptide-MHC complexes were produced by UV-ligand exchange, where a UV-sensitive peptide is cleaved upon UV-irradiation and exchanged with the peptide of interest as analyzed. Only peptide candidates that can effectively bind and stabilize the peptide-receptive MHC molecules prevent dissociation of the MHC complexes. To determine the yield of the exchange reaction, an ELISA was performed based on the detection of the light chain (β2m) of stabilized MHC complexes. The assay was performed as generally described in Rodenko et al. (Rodenko et al., 2006).
96 well MAXISorp plates (NUNC) were coated over night with 2 μg/ml streptavidin in PBS at room temperature, washed 4× and blocked for 1 h at 37° C. in 2% BSA containing blocking buffer. Refolded HLA-A*02:01/MLA-001 monomers served as standards, covering the range of 15-500 ng/ml. Peptide-MHC monomers of the UV-exchange reaction were diluted 100-fold in blocking buffer. Samples were incubated for 1 h at 37° C., washed four times, incubated with 2 μg/ml HRP conjugated anti-β2m for 1h at 37° C., washed again and detected with TMB solution that is stopped with […]. Absorption was measured at 450 nm. Candidate peptides that show a high exchange yield (preferably higher than 50%, most preferred higher than 75%) are generally preferred for a generation and production of antibodies or fragments thereof, and/or T cell receptors or fragments thereof, as they show sufficient avidity to the MHC molecules and prevent dissociation of the MHC complexes.

B1 and B2 fall in the same range of peptide exchange yield: 50 to 75% for the first, 50 to 75% for the second.

First: B3
Second: B4
The peptide exchange yield of the first is lower: 20 to 50% for the first, ≥ 75% for the second.

B5 and B6 cannot be ordered by peptide exchange yield: ≥ 75% for the first, ≥ 75% for the second.

B7 and B8 cannot be ordered by peptide exchange yield: ≥ 75% for the first, 50 to 75% for the second.

B9 and B10 cannot be ordered by peptide exchange yield: ≥ 75% for the first, ≥ 75% for the second.

B11 and B12 cannot be ordered by peptide exchange yield: ≥ 75% for the first, ≥ 75% for the second.

B13 and B14 cannot be ordered by peptide exchange yield: ≥ 75% for the first, ≥ 75% for the second.

B15 and B16 cannot be ordered by peptide exchange yield: ≥ 75% for the first, ≥ 75% for the second.

B17 and B18 fall in the same range of peptide exchange yield: 50 to 75% for the first, 50 to 75% for the second.

B19 and B20 cannot be ordered by peptide exchange yield: ≥ 75% for the first, 50 to 75% for the second.

B21 and B22 cannot be ordered by peptide exchange yield: 50 to 75% for the first, ≥ 75% for the second.

B23 and B24 cannot be ordered by peptide exchange yield: ≥ 75% for the first, ≥ 75% for the second.

B25 and B26 cannot be ordered by peptide exchange yield: ≥ 75% for the first, ≥ 75% for the second.

B27 and B28 cannot be ordered by peptide exchange yield: ≥ 75% for the first, 50 to 75% for the second.

B29 and B30 cannot be ordered by peptide exchange yield: ≥ 75% for the first, 50 to 75% for the second.

B31 and B32 cannot be ordered by peptide exchange yield: ≥ 75% for the first, ≥ 75% for the second.

B33 and B34 cannot be ordered by peptide exchange yield: 50 to 75% for the first, ≥ 75% for the second.

B35 and B36 cannot be ordered by peptide exchange yield: ≥ 75% for the first, ≥ 75% for the second.

B37 and B38 cannot be ordered by peptide exchange yield: ≥ 75% for the first, ≥ 75% for the second.

B39 and B40 cannot be ordered by peptide exchange yield: ≥ 75% for the first, ≥ 75% for the second.

B41 and B42 cannot be ordered by peptide exchange yield: ≥ 75% for the first, 50 to 75% for the second.

B43 and B44 cannot be ordered by peptide exchange yield: ≥ 75% for the first, ≥ 75% for the second.

B45 and B46 fall in the same range of peptide exchange yield: 50 to 75% for the first, 50 to 75% for the second.

B47 and B48 cannot be ordered by peptide exchange yield: ≥ 75% for the first, 50 to 75% for the second.

B49 and B50 cannot be ordered by peptide exchange yield: ≥ 75% for the first, 50 to 75% for the second.

B51 and B52 cannot be ordered by peptide exchange yield: ≥ 75% for the first, 50 to 75% for the second.

B53 and B54 cannot be ordered by peptide exchange yield: ≥ 75% for the first, 50 to 75% for the second.

B55 and B56 fall in the same range of peptide exchange yield: 50 to 75% for the first, 50 to 75% for the second.

B57 and B58 cannot be ordered by peptide exchange yield: ≥ 75% for the first, 50 to 75% for the second.

B59 and B60 cannot be ordered by peptide exchange yield: ≥ 75% for the first, ≥ 75% for the second.

B61 and B62 cannot be ordered by peptide exchange yield: ≥ 75% for the first, ≥ 75% for the second.

B63 and B64 cannot be ordered by peptide exchange yield: ≥ 75% for the first, ≥ 75% for the second.

B65 and B66 cannot be ordered by peptide exchange yield: ≥ 75% for the first, 50 to 75% for the second.
